# From publication PMC314469, “Protein Interaction Networks by Proteome Peptide Scanning” (PLoS Biology, 2004)
# T1: Myo5 SH3 (MYO5_YEAST), Q04439
# T1 chain: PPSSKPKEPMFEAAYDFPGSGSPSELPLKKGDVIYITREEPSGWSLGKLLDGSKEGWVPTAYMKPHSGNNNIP
# Target: T1, Myo5 SH3 (MYO5_YEAST), Q04439
# Test: SPOT array
binder,measurement,value
KLPDLKLPPSPVPS [YML083C 113-126],"normalised SPOT signal, Boehringer light units (BLU); mean over the file's lines of this peptide",231
KPMLHNVPHDPSLP [YDR231C 158-171],"normalised SPOT signal, Boehringer light units (BLU); mean over the file's lines of this peptide",413
KLEDLNEPLSPWIS [YPL159C 152-165],"normalised SPOT signal, Boehringer light units (BLU); mean over the file's lines of this peptide",71.1
KELLLIPPGFPTKN [YCL010C 181-194],"normalised SPOT signal, Boehringer light units (BLU); mean over the file's lines of this peptide",123
ILVPHLDPIDPWEA [YJR111C 130-143],"normalised SPOT signal, Boehringer light units (BLU); mean over the file's lines of this peptide",166
KPSLWEAPQNPPYS [YML035C 587-600],"normalised SPOT signal, Boehringer light units (BLU); mean over the file's lines of this peptide",152
KELIYKQPSGPGLV [YER045C 32-45],"normalised SPOT signal, Boehringer light units (BLU); mean over the file's lines of this peptide",79.3
KPKVLFHPHWPLYI [YJL105W 401-414],"normalised SPOT signal, Boehringer light units (BLU); mean over the file's lines of this peptide",196
IPVGYVTPKFPSLY [YPR153W 14-27],"normalised SPOT signal, Boehringer light units (BLU); mean over the file's lines of this peptide",21.6
KPSVMKLPPSPKQP [YFR030W 871-884],"normalised SPOT signal, Boehringer light units (BLU); mean over the file's lines of this peptide",380
KESKFGTPEKPLSD [YBL052C 444-457],"normalised SPOT signal, Boehringer light units (BLU); mean over the file's lines of this peptide",250
KLALHQYPNFPSEG [YML022W 11-24],"normalised SPOT signal, Boehringer light units (BLU); mean over the file's lines of this peptide",130
KEVDLTRPSAPSEP [YLR181C 258-271],"normalised SPOT signal, Boehringer light units (BLU); mean over the file's lines of this peptide",132
ILTLLKMPEVPNSV [YDR395W 823-836],"normalised SPOT signal, Boehringer light units (BLU); mean over the file's lines of this peptide",172
KEQNWKHPLLPLLK [YDL202W 121-134],"normalised SPOT signal, Boehringer light units (BLU); mean over the file's lines of this peptide",321
IPTSHAPPLPPTAP [YLR337C 317-330],"normalised SPOT signal, Boehringer light units (BLU); mean over the file's lines of this peptide",43600
KFPLMDKPSIPTLR [YNR011C 604-617],"normalised SPOT signal, Boehringer light units (BLU); mean over the file's lines of this peptide",432
KPPVYRLPPLPRLK [YDL045W-A 4-17],"normalised SPOT signal, Boehringer light units (BLU); mean over the file's lines of this peptide",2310
KPKMLPIPSKPTLF [YPL243W 531-544],"normalised SPOT signal, Boehringer light units (BLU); mean over the file's lines of this peptide",1360
KLPQLPPPPPPPPP [YIL159W 764-777],"normalised SPOT signal, Boehringer light units (BLU); mean over the file's lines of this peptide",54100
ILPVLNIPLPPQEK [YER132C 923-936],"normalised SPOT signal, Boehringer light units (BLU); mean over the file's lines of this peptide",21.6
KFVIHNEPIDPSDK [YMR246W 198-211],"normalised SPOT signal, Boehringer light units (BLU); mean over the file's lines of this peptide",46.7
KAGSFGAPSSPTSG [YPL179W 199-212],"normalised SPOT signal, Boehringer light units (BLU); mean over the file's lines of this peptide",124
KAPYLVQPNVPEKH [YHL002W 140-153],"normalised SPOT signal, Boehringer light units (BLU); mean over the file's lines of this peptide",131
KLGRFTNPQQPRED [YPL075W 704-717],"normalised SPOT signal, Boehringer light units (BLU); mean over the file's lines of this peptide",227
KLFVLLPPIDPKDG [YNL132W 563-576],"normalised SPOT signal, Boehringer light units (BLU); mean over the file's lines of this peptide",258
KPLKFLRPTYPDLS [YHR027C 87-100],"normalised SPOT signal, Boehringer light units (BLU); mean over the file's lines of this peptide",149
KFFKHLYPAIPILD [YLR256W 487-500],"normalised SPOT signal, Boehringer light units (BLU); mean over the file's lines of this peptide",217
KLDPLGEPFDPNKH [YOR232W 171-184],"normalised SPOT signal, Boehringer light units (BLU); mean over the file's lines of this peptide",276
KPPSYPSPAQPPKS [YER114C 444-457],"normalised SPOT signal, Boehringer light units (BLU); mean over the file's lines of this peptide",11900
KPLNLSKPISPPPS [YJL157C 78-91],"normalised SPOT signal, Boehringer light units (BLU); mean over the file's lines of this peptide",254
KELNLTGPKVPEDI [YHR027C 344-357],"normalised SPOT signal, Boehringer light units (BLU); mean over the file's lines of this peptide",102
KPPSYPSPVQPPQS [YBL085W 399-412],"normalised SPOT signal, Boehringer light units (BLU); mean over the file's lines of this peptide",16500
KPAVLHYPPIPASA [YAL031C 680-693],"normalised SPOT signal, Boehringer light units (BLU); mean over the file's lines of this peptide",183
KLAPLNSPSLPTTN [YOL107W 236-249],"normalised SPOT signal, Boehringer light units (BLU); mean over the file's lines of this peptide",212
KELPFTGPSIPFEN [YPL216W 339-352],"normalised SPOT signal, Boehringer light units (BLU); mean over the file's lines of this peptide",339
KFTDMQVPKGPVSP [YOR264W 96-109],"normalised SPOT signal, Boehringer light units (BLU); mean over the file's lines of this peptide",197
KAVHLYFPILPHSG [YCR034W 255-268],"normalised SPOT signal, Boehringer light units (BLU); mean over the file's lines of this peptide",125
KLVKFKLPFLPISD [YGR150C 548-561],"normalised SPOT signal, Boehringer light units (BLU); mean over the file's lines of this peptide",974
KLWDLSKPSKPLKE [YAR003W 97-110],"normalised SPOT signal, Boehringer light units (BLU); mean over the file's lines of this peptide",233
KPSGYYGPNSPLKL [YKL108W 199-212],"normalised SPOT signal, Boehringer light units (BLU); mean over the file's lines of this peptide",159
KAIVWRLPKMPKIK [YFL040W 5-18],"normalised SPOT signal, Boehringer light units (BLU); mean over the file's lines of this peptide",515
KEFRFIFPLQPLFI [YGL142C 392-405],"normalised SPOT signal, Boehringer light units (BLU); mean over the file's lines of this peptide",750
LAIRLSWPPAPVTL [YDL151C 103-116],"normalised SPOT signal, Boehringer light units (BLU); mean over the file's lines of this peptide",155
KFLIHNEPIDPNDR [YIL009W 198-211],"normalised SPOT signal, Boehringer light units (BLU); mean over the file's lines of this peptide",122
KLNSLQIPHLPPSV [YHR105W 144-157],"normalised SPOT signal, Boehringer light units (BLU); mean over the file's lines of this peptide",350
KASSMPAPPPPPPP [YLR337C 391-404],"normalised SPOT signal, Boehringer light units (BLU); mean over the file's lines of this peptide",10500
KLKSLNLPQLPPPK [YDR266C 567-580],"normalised SPOT signal, Boehringer light units (BLU); mean over the file's lines of this peptide",675
KLPKLNVPLNPKGK [YAR009C 933-946],"normalised SPOT signal, Boehringer light units (BLU); mean over the file's lines of this peptide",305
IPLPHQPPPLPIYS [YMR182C 149-162],"normalised SPOT signal, Boehringer light units (BLU); mean over the file's lines of this peptide",53600
KWKSLFPPFFPSDI [YCL016C 283-296],"normalised SPOT signal, Boehringer light units (BLU); mean over the file's lines of this peptide",242
ILVAYGLPVSPDEK [YDR127W 327-340],"normalised SPOT signal, Boehringer light units (BLU); mean over the file's lines of this peptide",167
ILIFLWIPDDPSKA [YJR152W 263-276],"normalised SPOT signal, Boehringer light units (BLU); mean over the file's lines of this peptide",1370
ILQELSLPSRPVMP [YGR002C 427-440],"normalised SPOT signal, Boehringer light units (BLU); mean over the file's lines of this peptide",51.9
KFRQMFKPLAPNTR [YLR072W 165-178],"normalised SPOT signal, Boehringer light units (BLU); mean over the file's lines of this peptide",1220
ILQILFEPMPPFNS [YBL037W 656-669],"normalised SPOT signal, Boehringer light units (BLU); mean over the file's lines of this peptide",200
KFTDMLDPEKPNVI [YBR033W 385-398],"normalised SPOT signal, Boehringer light units (BLU); mean over the file's lines of this peptide",262
KWTIMPHPNRPNAA [YOL008W 138-151],"normalised SPOT signal, Boehringer light units (BLU); mean over the file's lines of this peptide",429
